Paper PMC9595563 (2022)

Target: SARS-CoV-2 spike RBD-Fc recombinant protein (ELISA) (SARS-CoV-2, UniProt P0DTC2)
Assay: ELISA

B1: LRRC15-His (natural protein)
chain: YHGCPSECTCSRASQVECTGARIVAVPTPLPWNAMSLQILNTHITELNESPFLNISALIALRIEKNELSRITPGAFRNLGSLRYLSLANNKLQVLPIGLFQGLDSLESLLLSSNQLLQIQPAHFSQCSNLKELQLHGNHLEYIPDGAFDHLVGLTKLNLGKNSLTHISPRVFQHLGNLQVLRLYENRLTDIPMGTFDGLVNLQELALQQNQIGLLSPGLFHNNHNLQRLYLSNNHISQLPPSVFMQLPQLNRLTLFGNSLKELSPGIFGPMPNLRELWLYDNHISSLPDNVFSNLRQLQVLILSRNQISFISPGAFNGLTELRELSLHTNALQDLDGNVFRMLANLQNISLQNNRLRQLPGNIFANVNGLMAIQLQNNQLENLPLGIFDHLGKLCELRLYDNPWRCDSDILPLRNWLLLNQPRLGTDTVPVCFSPANVRGQSLIIINVNVAVPSVHVPEVPSYPETPWYPDTPSYPDTTSVSSTTELTSPVEDYTDLTTIQVTDDRSVWGMTQAQSG
  Kd: 165 nM
